Assay [1] has as its target Rvb1ΔDII/Rvb2ΔDII complex (S. cerevisiae) (UniProt Q03940). Nature of the assay: native MS.
Assay [2] addresses Rvb1/his-Rvb2 complex (S. cerevisiae) (UniProt Q03940). In words: native MS.

Rvb1ΔDII/Rvb2ΔDII complex, sequence (Q03940 whole entry, stated change not applied): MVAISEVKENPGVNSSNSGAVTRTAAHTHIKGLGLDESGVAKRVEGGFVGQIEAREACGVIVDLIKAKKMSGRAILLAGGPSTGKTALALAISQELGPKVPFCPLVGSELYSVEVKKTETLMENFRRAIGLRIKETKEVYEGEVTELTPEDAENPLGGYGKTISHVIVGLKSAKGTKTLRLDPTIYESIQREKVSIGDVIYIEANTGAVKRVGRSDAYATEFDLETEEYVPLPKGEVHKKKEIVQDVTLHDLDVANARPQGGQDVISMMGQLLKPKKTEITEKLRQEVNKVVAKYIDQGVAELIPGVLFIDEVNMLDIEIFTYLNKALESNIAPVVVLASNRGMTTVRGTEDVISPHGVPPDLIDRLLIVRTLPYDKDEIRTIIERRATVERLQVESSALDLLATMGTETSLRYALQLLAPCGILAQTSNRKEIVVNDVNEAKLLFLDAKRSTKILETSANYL
Rvb1ΔDII/Rvb2ΔDII complex, sequence (Q12464 whole entry, stated change not applied): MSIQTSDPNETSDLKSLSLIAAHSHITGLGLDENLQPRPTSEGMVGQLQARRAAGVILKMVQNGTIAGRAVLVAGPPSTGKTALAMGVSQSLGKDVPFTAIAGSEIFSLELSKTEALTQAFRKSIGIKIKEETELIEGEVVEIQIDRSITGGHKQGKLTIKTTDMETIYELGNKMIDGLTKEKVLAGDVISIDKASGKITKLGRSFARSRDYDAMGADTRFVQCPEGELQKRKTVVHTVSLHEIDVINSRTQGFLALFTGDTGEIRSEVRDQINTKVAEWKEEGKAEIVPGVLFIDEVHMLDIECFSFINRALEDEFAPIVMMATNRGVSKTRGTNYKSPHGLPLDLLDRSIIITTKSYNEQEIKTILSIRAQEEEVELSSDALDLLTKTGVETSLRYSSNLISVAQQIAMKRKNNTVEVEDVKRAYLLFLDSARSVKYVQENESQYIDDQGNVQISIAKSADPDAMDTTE

The substance “Rvb1ΔDII/Rvb2ΔDII complex (from UniProt Q03940 1-463; Q12464 1-471)” registered a percent of dodecamer in the population in assay [1] of 3%.

In assay [2], “Rvb1/his-Rvb2 complex (from UniProt Q03940 1-463; Q12464 1-471)” yielded a percent of hexamers in the population of 0% and a percent of the dodecamer dissociated into hexamers of 14%.
